Patent US20060020118A1

Target: human IFNAR1 (first human interferon-alpha receptor), membrane form on cells (human) (UniProt P17181)
Test: flow cytometry, fluoresceinated control IgG on U266 cells, no soluble hIFNAR1

UniProt P17181, sequence (P17181 28-557): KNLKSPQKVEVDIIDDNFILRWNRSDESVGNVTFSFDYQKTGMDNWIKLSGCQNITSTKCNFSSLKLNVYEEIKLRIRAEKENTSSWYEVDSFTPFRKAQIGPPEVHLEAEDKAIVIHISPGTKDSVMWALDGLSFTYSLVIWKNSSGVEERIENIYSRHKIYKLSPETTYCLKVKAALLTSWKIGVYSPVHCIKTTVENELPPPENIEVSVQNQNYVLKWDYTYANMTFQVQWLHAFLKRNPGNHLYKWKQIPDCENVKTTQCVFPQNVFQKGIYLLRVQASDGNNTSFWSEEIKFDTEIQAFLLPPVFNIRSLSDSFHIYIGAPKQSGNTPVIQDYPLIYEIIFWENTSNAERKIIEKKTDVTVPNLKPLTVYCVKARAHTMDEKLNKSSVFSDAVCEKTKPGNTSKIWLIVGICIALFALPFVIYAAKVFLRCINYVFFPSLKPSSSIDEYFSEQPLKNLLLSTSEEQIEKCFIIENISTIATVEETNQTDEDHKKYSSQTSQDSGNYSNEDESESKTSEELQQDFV

Q: How did the Mean Fluorescence Intensity turn out when fluoresceinated control IgG (antibody) was run?
A: Its Mean Fluorescence Intensity is 2.99.
